# Results: patent US20240261333A1, “NOVEL TARGETS FOR ENHANCING ANTI-TUMOR IMMUNITY” (THE BROAD INSTITUTE, INC., priority 2021, published 2024)
# Tests used:
# PSMA7 = PSMA7 (UniProt O14818); assay: co-IP, IgG control, N-FLAG B3GNT2 cell lysate, mass spectrometry
# HSPB1 = HSPB1 (UniProt P04792); assay: as above
# ITGB3 = ITGB3 (UniProt P05106); assay: as above
# RPL22 = RPL22 (UniProt P35268); assay: as above
# DEFA3 = DEFA3 (UniProt P59666); assay: as above
# CFL1 = CFL1 (UniProt P23528); assay: as above
# TAGLN = TAGLN (UniProt Q01995); assay: as above
# RPL3 = RPL3 (UniProt P39023); assay: as above
# RPS19 = RPS19 (UniProt P39019); assay: as above
# MTDH = MTDH (UniProt Q86UE4); assay: as above
# DNAJA2 = DNAJA2 (UniProt O60884); assay: as above
# RPL35 = RPL35 (UniProt P42766); assay: as above
# RPS18 = RPS18 (UniProt P62269); assay: as above
# HNRNPU = HNRNPU (UniProt Q00839); assay: as above
# RPL36 = RPL36 (UniProt Q9Y3U8); assay: co-IP with anti-FLAG, mass spectrometry; C-FLAG B3GNT2
# RPL31 = RPL31 (UniProt P62899); assay: as above
# YBX3 = YBX3 (UniProt P16989); assay: as above
# CTSD = CTSD (UniProt P07339); assay: as above
# LTF = LTF (UniProt P02788); assay: as above
# RPL21 = RPL21 (UniProt P46778); assay: as above
# HNRNPF = HNRNPF (UniProt P52597); assay: as above
# TPI1 = TPI1 (UniProt P60174); assay: as above
# STRAP = STRAP (UniProt Q9Y3F4); assay: as above
# FABP5 = FABP5 (UniProt Q01469); assay: as above
# EEF1A1 = EEF1A1 (UniProt P68104); assay: as above
# ATP5F1B = ATP5F1B (UniProt P06576); assay: as above
# SSR1 = SSR1 (UniProt P43307); assay: as above
# SLIRP = SLIRP (UniProt Q9GZT3); assay: as above
# RPLP2 = RPLP2 (UniProt P05387); assay: as above
# RPL11 = RPL11 (UniProt P62913); assay: as above
# YWHAZ = YWHAZ (UniProt P63104); assay: as above
# RPL35A = RPL35A (UniProt P18077); assay: as above
# RPL10A = RPL10A (UniProt P62906); assay: as above
# RCC2 = RCC2 (UniProt Q9P258); assay: as above
# LYZ = LYZ (UniProt P61626); assay: as above
# HNRNPA1 = HNRNPA1 (UniProt P09651); assay: as above
# RPS15A = RPS15A (UniProt P62244); assay: as above
# RPN1 = RPN1 (UniProt P04843); assay: as above
# UBA52 = UBA52 (UniProt P62987); assay: as above
# RPL36A = RPL36A (UniProt P83881); assay: as above
# HBA1 = HBA1 (UniProt P69905); assay: as above
# ACTR3 = ACTR3 (UniProt P61158); assay: as above
# Sequence of PSMA7 (O14818 whole entry): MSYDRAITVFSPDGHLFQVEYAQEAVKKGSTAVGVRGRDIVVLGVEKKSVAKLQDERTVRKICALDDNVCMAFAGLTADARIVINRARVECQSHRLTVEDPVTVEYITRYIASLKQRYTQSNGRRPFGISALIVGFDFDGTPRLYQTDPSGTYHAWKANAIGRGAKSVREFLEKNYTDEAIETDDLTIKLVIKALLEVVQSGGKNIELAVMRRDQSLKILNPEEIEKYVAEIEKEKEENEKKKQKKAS
# Sequence of HSPB1 (P04792 whole entry): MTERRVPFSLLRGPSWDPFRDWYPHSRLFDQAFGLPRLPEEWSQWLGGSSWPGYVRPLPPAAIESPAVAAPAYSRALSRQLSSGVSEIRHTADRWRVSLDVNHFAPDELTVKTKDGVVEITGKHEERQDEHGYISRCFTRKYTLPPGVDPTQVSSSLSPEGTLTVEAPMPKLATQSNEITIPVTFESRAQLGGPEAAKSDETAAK
# Sequence of EEF1A1 (P68104 2-462 limits assumed): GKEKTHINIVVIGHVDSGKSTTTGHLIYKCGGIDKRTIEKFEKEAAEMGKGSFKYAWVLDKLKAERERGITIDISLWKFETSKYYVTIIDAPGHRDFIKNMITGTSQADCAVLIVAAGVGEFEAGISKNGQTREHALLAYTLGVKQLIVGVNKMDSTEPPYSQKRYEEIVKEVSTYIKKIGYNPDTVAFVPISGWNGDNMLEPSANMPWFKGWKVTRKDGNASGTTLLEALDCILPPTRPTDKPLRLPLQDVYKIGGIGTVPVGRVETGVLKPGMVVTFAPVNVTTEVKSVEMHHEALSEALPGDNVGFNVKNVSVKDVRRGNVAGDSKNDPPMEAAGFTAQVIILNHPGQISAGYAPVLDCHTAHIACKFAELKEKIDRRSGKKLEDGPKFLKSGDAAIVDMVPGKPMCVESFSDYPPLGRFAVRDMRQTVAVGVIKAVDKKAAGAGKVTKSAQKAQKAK
# Sequence of RCC2 (Q9P258 whole entry): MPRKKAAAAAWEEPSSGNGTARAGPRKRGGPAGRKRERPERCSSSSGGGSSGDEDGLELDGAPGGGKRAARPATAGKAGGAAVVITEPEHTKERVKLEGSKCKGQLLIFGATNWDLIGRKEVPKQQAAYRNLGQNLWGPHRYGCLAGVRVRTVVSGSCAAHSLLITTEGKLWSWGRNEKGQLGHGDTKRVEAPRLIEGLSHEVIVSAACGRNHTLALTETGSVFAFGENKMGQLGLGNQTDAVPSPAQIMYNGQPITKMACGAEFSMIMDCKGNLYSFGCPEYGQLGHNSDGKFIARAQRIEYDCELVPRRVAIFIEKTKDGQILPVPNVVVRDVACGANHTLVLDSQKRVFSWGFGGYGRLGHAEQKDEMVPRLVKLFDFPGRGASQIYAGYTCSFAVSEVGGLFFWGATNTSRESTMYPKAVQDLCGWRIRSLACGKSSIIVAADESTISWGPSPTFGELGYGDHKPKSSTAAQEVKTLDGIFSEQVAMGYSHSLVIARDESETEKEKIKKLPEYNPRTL
# Sequence of ITGB3 (P05106 27-788 limits assumed): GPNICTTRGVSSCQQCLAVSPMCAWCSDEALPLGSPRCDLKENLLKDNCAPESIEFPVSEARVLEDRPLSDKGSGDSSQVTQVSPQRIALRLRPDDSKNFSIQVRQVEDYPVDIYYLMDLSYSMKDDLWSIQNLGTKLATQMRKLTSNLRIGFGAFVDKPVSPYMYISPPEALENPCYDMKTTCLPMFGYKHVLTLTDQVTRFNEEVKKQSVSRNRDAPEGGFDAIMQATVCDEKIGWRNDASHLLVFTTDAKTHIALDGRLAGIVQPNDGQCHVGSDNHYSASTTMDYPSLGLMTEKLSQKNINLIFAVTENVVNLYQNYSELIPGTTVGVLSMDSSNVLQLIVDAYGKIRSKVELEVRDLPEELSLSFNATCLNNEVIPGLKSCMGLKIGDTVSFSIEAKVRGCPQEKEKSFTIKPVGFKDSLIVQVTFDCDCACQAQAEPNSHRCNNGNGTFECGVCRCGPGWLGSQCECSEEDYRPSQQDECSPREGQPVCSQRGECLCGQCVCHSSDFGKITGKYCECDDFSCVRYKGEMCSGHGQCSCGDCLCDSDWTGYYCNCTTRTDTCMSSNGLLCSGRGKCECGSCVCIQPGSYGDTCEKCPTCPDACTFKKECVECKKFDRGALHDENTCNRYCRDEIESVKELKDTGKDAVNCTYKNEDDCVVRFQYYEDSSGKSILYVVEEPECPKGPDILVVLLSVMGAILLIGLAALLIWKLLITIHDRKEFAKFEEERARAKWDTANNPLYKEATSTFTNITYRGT
# Sequence of HNRNPA1 (P09651 2-372 limits assumed): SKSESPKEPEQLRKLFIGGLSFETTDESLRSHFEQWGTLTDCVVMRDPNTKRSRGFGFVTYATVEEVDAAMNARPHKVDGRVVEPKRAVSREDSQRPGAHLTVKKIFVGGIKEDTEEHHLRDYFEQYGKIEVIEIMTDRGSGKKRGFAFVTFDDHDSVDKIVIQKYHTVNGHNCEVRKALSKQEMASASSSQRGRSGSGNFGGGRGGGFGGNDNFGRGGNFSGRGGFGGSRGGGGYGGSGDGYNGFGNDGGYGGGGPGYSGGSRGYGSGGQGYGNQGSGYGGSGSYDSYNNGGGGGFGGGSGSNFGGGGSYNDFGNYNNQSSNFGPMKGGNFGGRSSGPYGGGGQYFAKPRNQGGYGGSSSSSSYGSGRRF
# Sequence of TAGLN (Q01995 2-201 limits assumed): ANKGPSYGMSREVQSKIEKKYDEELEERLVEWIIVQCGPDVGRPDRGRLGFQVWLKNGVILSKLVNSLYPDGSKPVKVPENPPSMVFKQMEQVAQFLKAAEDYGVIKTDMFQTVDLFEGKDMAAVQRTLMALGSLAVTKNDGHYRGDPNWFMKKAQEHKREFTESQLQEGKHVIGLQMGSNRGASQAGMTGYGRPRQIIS
# Sequence of DEFA3 (P59666 65-94 limits assumed): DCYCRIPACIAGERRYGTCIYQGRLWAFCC
# Sequence of RPN1 (P04843 24-607 limits assumed): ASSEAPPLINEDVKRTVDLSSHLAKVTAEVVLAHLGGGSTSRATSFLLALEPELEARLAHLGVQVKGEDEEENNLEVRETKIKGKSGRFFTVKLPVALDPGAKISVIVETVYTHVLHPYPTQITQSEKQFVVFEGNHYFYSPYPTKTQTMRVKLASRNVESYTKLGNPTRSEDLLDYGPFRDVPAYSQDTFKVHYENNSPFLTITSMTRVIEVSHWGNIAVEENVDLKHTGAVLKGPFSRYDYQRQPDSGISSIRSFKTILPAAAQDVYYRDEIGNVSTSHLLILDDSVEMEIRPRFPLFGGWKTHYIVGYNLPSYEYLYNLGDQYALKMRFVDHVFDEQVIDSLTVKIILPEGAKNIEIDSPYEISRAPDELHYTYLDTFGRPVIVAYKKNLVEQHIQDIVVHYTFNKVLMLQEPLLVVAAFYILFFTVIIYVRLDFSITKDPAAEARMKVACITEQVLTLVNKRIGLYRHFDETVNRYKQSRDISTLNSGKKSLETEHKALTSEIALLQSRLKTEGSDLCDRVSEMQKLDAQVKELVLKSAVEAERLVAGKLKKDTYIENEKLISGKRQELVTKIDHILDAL
# Sequence of SSR1 (P43307 19-286 limits assumed): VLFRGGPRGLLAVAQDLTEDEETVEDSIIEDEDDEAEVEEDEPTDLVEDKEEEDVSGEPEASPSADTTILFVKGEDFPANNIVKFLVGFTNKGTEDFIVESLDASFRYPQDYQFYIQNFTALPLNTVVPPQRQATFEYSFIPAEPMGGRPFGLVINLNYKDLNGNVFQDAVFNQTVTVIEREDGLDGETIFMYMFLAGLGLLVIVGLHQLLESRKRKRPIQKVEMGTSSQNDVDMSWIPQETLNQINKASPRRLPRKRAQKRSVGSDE
# Sequence of LTF (P02788 20-710 limits assumed): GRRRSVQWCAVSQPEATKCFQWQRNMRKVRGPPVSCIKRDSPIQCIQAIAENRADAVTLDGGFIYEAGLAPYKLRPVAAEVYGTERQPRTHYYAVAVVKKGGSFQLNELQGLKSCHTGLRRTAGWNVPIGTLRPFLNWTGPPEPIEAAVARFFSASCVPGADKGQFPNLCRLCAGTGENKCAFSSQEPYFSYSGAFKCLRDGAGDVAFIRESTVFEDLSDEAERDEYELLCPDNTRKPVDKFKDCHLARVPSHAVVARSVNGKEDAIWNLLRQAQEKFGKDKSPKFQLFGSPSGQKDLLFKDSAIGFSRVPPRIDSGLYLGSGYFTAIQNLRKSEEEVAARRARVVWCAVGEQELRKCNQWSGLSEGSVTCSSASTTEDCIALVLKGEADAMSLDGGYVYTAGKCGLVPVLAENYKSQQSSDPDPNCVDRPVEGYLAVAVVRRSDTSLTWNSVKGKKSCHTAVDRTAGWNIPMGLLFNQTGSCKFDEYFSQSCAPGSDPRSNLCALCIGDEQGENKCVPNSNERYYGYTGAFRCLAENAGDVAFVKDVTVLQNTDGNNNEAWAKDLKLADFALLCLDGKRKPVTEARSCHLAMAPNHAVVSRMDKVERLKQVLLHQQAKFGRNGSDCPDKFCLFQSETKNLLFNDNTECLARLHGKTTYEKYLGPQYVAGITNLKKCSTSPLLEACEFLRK
# Sequence of ATP5F1B (P06576 48-529 limits assumed): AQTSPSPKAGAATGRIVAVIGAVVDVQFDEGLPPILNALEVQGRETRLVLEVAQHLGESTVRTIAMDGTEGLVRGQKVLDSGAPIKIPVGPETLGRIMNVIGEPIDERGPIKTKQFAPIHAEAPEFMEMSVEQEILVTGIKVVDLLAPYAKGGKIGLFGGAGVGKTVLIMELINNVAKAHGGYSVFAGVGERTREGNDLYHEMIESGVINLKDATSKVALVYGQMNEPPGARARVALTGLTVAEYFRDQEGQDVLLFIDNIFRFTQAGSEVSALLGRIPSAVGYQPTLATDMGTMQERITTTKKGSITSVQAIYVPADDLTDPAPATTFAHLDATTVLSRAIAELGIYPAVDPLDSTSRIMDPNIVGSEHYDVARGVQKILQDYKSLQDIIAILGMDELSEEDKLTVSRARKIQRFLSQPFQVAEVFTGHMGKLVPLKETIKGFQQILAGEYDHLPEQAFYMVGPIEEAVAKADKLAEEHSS
substance,measurement,setting,value
IgG control (Millipore Sigma 12-371) (antibody),co-IP mass spectrometry count,PSMA7,0
same,co-IP mass spectrometry count,HSPB1,4
same,co-IP mass spectrometry count,ITGB3,0
same,co-IP mass spectrometry count,RPL22,0
same,co-IP mass spectrometry count,DEFA3,3
same,co-IP mass spectrometry count,CFL1,3
same,co-IP mass spectrometry count,TAGLN,0
same,co-IP mass spectrometry count,RPL3,3
same,co-IP mass spectrometry count,RPS19,5
same,co-IP mass spectrometry count,MTDH,0
same,co-IP mass spectrometry count,DNAJA2,0
same,co-IP mass spectrometry count,RPL35,2
same,co-IP mass spectrometry count,RPS18,11
same,co-IP mass spectrometry count,HNRNPU,2
C-terminal FLAG tagged B3GNT2 (from UniProt Q9NY97 1-397) (enzyme),co-IP mass spectrometry count,RPL36,6
same,co-IP mass spectrometry count,RPL31,6
same,co-IP mass spectrometry count,YBX3,7
same,co-IP mass spectrometry count,CTSD,4
same,co-IP mass spectrometry count,LTF,7
same,co-IP mass spectrometry count,RPL21,11
same,co-IP mass spectrometry count,HNRNPF,7
same,co-IP mass spectrometry count,TPI1,2
same,co-IP mass spectrometry count,STRAP,3
same,co-IP mass spectrometry count,FABP5,8
same,co-IP mass spectrometry count,EEF1A1,11
same,co-IP mass spectrometry count,ATP5F1B,4
same,co-IP mass spectrometry count,SSR1,4
same,co-IP mass spectrometry count,SLIRP,6
same,co-IP mass spectrometry count,RPLP2,13
same,co-IP mass spectrometry count,RPL11,7
same,co-IP mass spectrometry count,YWHAZ,4
same,co-IP mass spectrometry count,RPL35A,6
same,co-IP mass spectrometry count,RPL10A,16
same,co-IP mass spectrometry count,RCC2,6
same,co-IP mass spectrometry count,LYZ,6
same,co-IP mass spectrometry count,HNRNPA1,9
same,co-IP mass spectrometry count,RPS15A,6
same,co-IP mass spectrometry count,RPN1,7
same,co-IP mass spectrometry count,UBA52,20
same,co-IP mass spectrometry count,RPL36A,11
same,co-IP mass spectrometry count,HBA1,4
same,co-IP mass spectrometry count,ACTR3,7
